# Measured values: patent US20180072804A1 (Hoffmann-La Roche, published 2018)
# Where “and” joins values, the source holds several entries; their conditions need not be identical. Equal entries are not always repeated. Where two headings read alike, the source gives them in different places.
# T1: cynomolgus TIM-3 on isolated cyno CD14+ monocytes (cynomolgus monkey, UniProt A0A2K5U3G7 22-294)
# T1 construct: whole, on cells; also called cyno monocytes expressing TIM-3
# T1 sequence: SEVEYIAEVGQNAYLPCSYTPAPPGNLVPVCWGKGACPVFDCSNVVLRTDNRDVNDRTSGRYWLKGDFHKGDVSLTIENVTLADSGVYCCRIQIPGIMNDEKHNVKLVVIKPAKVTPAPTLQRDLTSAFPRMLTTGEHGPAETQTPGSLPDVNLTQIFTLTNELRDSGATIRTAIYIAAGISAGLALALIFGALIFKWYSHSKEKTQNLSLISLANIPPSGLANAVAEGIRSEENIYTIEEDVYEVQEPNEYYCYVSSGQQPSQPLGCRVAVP
# B1: anti-TIM3 antibody Tim3_0016 variant (Tim3_0018) (antibody, V domains shown)
# VH: QVTLKESGPGILQPSQTLSLTCSFSGFSLSTSGMSVGWIRQPSGKGLEWLAHIWLNDDVFFNPALKRRLTISKDTSNNQVFLQIASVVTADTATYYCVRANGYLYALDYWGQGISVTVSS
# VL: QIVLTQSPAIMSASPGQKVTITCSASSSVNYTQWYQQKLGSSPKLWIYDAFKLAPGVPARFSGSGTGTSYSLTISSMEAEDAASYFCHQWSSYPWTFGGGTKLEIK
# notes: Mouse monoclonal from hybridoma; also called TIM3-0016 variant (0018); Tim3_0016 variant 0018-A488
# B2: Fab-PE24 construct of anti-TIM3 antibody Tim3_0033 (Fab, V domains shown)
# VH: QGQMHQSGAELVKPGSSVKLSCKTSGFTFSSSFISWLKQKPGQSLEWIAWIYAATGSTSYNQKFTNKAQLTVDTSSSAAYMQFSSLTTEDSAIYYCARHAGYPHYYAMDYWGQGTSVTVSS
# VL: DIQMTQSPASLSASVGETVTITCRASENIFSNLAWYQQKQGKSPQLLVYSATNLGDGVPSRFSGSGSGTQFSLKINSLQPEDFGNYYCQHFYKIPFTFGTGTKLEIK
# B3: Fab-PE24 construct of anti-TIM3 antibody Tim3_0021 (Fab, V domains shown)
# VH: QVQLQQSGPQLVRPGASVQISCKASGYSFTSYLLHWLKQRPGQGLEWIGMIDPSDSETRLNQKFKDKATLTVDKSSSTAYMQLSSPTSEDSAVYYCARDGYYAWYYFDCWGQGTTLTVSS
# VL: DIVLTQSPATLSVTPGDRVSLSCRASQSIGNNLHWYQQKSHESPRLLIKYASHSISGIPSKFSGTGSGTDFTLSFNSVETEDFGMYFCQQSNSWPLTFGAGTKLELK
# What was measured:
# [1] = target: T2, human TIM3, full length, on cells (human, UniProt Q8TDQ0 22-301); test: FACS, human CD14+ monocytes, donor1, isotype control
# [2] = target: cynomolgus TIM-3 on isolated cyno CD14+ monocytes (cynomolgus monkey); test: FACS, cyno CD14+ monocytes, cyno1 (16719M), isotype control
# [3] = target: T2, human TIM3, full length, on cells; test: FACS, human CD14+ monocytes, donor2, isotype control
# [4] = target: cynomolgus TIM-3 on isolated cyno CD14+ monocytes (cynomolgus monkey); test: FACS, cyno CD14+ monocytes, cyno2 (17435M), isotype control
# [5] = target: T2, human TIM3, full length, on cells; test: FACS, human CD14+ monocytes, donor3, isotype control
# [6] = target: cynomolgus TIM-3 on isolated cyno CD14+ monocytes (cynomolgus monkey); test: FACS, cyno CD14+ monocytes, cyno3 (30085F), isotype control
# [7] = target: T2, human TIM3, full length, on cells; test: FACS competition, RPMI-8226 cells; competitor Tim3_0018
# [8] = target: T2, human TIM3, full length, on cells; test: FACS competition, RPMI-8226 cells; competitor Tim3_0028
# [9] = target: T2, human TIM3, full length, on cells; test: FACS competition, RPMI-8226 cells; competitor Tim3_0026
# [10] = target: T2, human TIM3, full length, on cells; test: FACS competition, RPMI-8226 cells; competitor Tim3_0022
# [11] = target: T2, human TIM3, full length, on cells; test: FACS competition, RPMI-8226 cells; competitor Tim3_0016
# [12] = target: cynomolgus TIM-3 on isolated cyno CD14+ monocytes (cynomolgus monkey); test: FACS, cyno CD14+ monocytes, cyno3 (30085F)
# [13] = target: T2, human TIM3, full length, on cells; test: FACS, human CD14+ monocytes, donor3, 10 µg/ml
# [14] = target: cynomolgus TIM-3 on isolated cyno CD14+ monocytes (cynomolgus monkey); test: FACS, cyno CD14+ monocytes, cyno2 (17435M)
# [15] = target: T2, human TIM3, full length, on cells; test: FACS competition, RPMI-8226 cells; competitor Tim3_0038
# [16] = target: T2, human TIM3, full length, on cells; test: FACS, human CD14+ monocytes, donor1, 10 µg/ml
# [17] = target: cynomolgus TIM-3 on isolated cyno CD14+ monocytes (cynomolgus monkey); test: FACS, cyno CD14+ monocytes, cyno1 (16719M)
# [18] = target: T2, human TIM3, full length, on cells; test: FACS, human CD14+ monocytes, donor2, 10 µg/ml
# [19] = target: monomeric cyno Tim3-ECD (cynomolgus); test: SPR, Ab captured on anti-mouse IgG, 25 C
# monomeric human Tim3-ECD [20] = target: T3, monomeric human Tim3-ECD (human, UniProt Q8TDQ0 22-202); test: SPR, Ab captured on anti-mouse IgG, 25 C
# T3 construct: also called huTim3; hu Tim3-ECD
# [21] = target: T4, Fc-tagged human Tim3-ECD dimer (human, UniProt Q8TDQ0 22-202); test: SPR, Ab captured on anti-mouse IgG, 25 C
# T4 construct: also called huTim3Fc; huFc fused dimeric human Tim3-ECD
# [22] = target: T2, human TIM3, full length, on cells; test: cell-based or functional assay
# Tim3-ECD-His-Biotin [23] = target: T5, Tim3-ECD-His-Biotin (human, UniProt Q8TDQ0 22-202, biotinylated with BirA Ligase); test: ELISA on human Tim3
# T5 construct: Coated on streptavidin plates; also called human Tim3 (ELISA); Biochem Human
# [24] = target: monomeric cyno Tim3-ECD (cynomolgus); test: ELISA on cynomolgus Tim3
# [25] = target: T2, human TIM3, full length, on cells; test: cell ELISA, CHO-K1 with full-length human Tim3
# monomeric human Tim3-ECD [26] = target: T3, monomeric human Tim3-ECD; test: SPR, Ab captured on anti-mouse IgG, monomeric Tim3-ECD; monomer Tim3, not the Fc-tagged dimer
# [27] = target: T2, human TIM3, full length, on cells; test: cell ELISA, CHO-K1 with full-length human Tim3
# [28] = target: T4, Fc-tagged human Tim3-ECD dimer; test: SPR, Ab captured on anti-mouse IgG, dimeric Tim3-ECD-Fc
# Protocol: Therefore, an anti-mouse IgG was immobilized by amine coupling to the surface of a (BIAcore) CMS sensor chip. […] The sensor chip surface was regenerated after each analysis cycle. The equilibrium constant KD was finally gained by fitting the data to a 1:1 Langmuir interaction model.
# The samples were injected for 30 seconds with a concentration of 200 μg/ml and bound to the spots 1 and 5 of each flow cell, allowing the measurement of eight samples in parallel. […] The flow rate was set to 30 μl/min for the whole run.
# Finally the double referenced data was fitted to a 1:1 Langmuir interaction model with the BIAcore B4000 Evaluation Software.
# [29] = target: T1, cynomolgus TIM-3 on isolated cyno CD14+ …; test: FACS, cyno CD14+ monocytes, cyno1 (16719M)
# Description: (§1) CD14+ Monocytes were isolated from cynomolgus monkey anticoagulated peripheral blood (Covance) by density gradient centrifugation using Ficoll-Paque (GE Healthcare) (see General Protocols in the User Manuals or visit www.miltenyibiotec.com/protocols) and subsequent positive selection via NHP CD14 MicroBeads. First the CD14+ cells are magnetically labeled with CD14 MicroBeads. Then the cell suspension is loaded onto a MACS® Column which is placed in the magnetic field of a MACS Separator. The magnetically labeled CD14+ cells are retained in the column. The unlabeled cells run through, this cell fraction is depleted of CD14+ cells. After removal of the column from the magnetic field, the magnetically retained CD14+ cells can be eluted as the positively selected cell fraction. After centrifugation at 200×g for 10 min at room temperature the monocytes were harvested and used directly in binding assay or resuspended in freezing medium (10% DMSO, 90% FCS) at 1.0E+07 cells/ml and stored in liquid nitrogen.
# (§2) After washing and centrifugation MFI signals of stained cells were analyzed by BD Biosciences FACSCanto flow cytometer.
# [30] = target: T1, cynomolgus TIM-3 on isolated cyno CD14+ …; test: FACS, cyno CD14+ monocytes, cyno3 (30085F)
# Description: as §1, §2
# [31] = target: T2, human TIM3, full length, on cells; test: cell-based or functional assay; remark: listed apart in the source
# [32] = target: T2, human TIM3, full length, on cells; test: cell ELISA, CHO-K1 with full-length human Tim3; remark: listed apart in the source
# Protocol: Then the reaction was stopped by addition of 25 μl/well 1N HCL-solution.
# Tim3-ECD-His-Biotin [33] = target: T5, Tim3-ECD-His-Biotin; test: ELISA on Tim3-ECD-His-Biotin
# Protocol: After washing (3×90 μl/well with PBST-buffer) 25 μl/well sheep-anti-mouse-POD (GE NA9310V) was added in 1:9000 dilution and incubated at RT for 1 h while shaking at 400 rpm rotation. After washing (4×90 μl/well with PBST-buffer) 25 TMB substrate (Calbiochem, #CL07) was added and incubated until OD 1.5-2.5. Then the reaction was stopped by addition of 25 μl/well 1N HCL-solution.
# [34] = target: T1, cynomolgus TIM-3 on isolated cyno CD14+ …; test: FACS, cyno CD14+ monocytes, cyno2 (17435M)
# Description: as §1, §2
# [35] = target: T2, human TIM3, full length, on cells; test: cell-based or functional assay; remark: listed apart in the source
molecule,measurement,setting,value
Rat-IgG2A isotype control (antibody),Specific Binding [MFI],[1],71 MFI
same,Specific Binding [MFI],[2],84 MFI
same,Specific Binding [MFI],[3],68 MFI
same,Specific Binding [MFI],[4],86 MFI
same,Specific Binding [MFI],[5],70 MFI
same,Specific Binding [MFI],[6],91 MFI
anti-human TIM-3 rat monoclonal antibody clone 344823 (R&D Systems),Max % Inhibition of Binding,[7],0%
same,Max % Inhibition of Binding,[8],107%
same,Max % Inhibition of Binding,[9],3%
same,Max % Inhibition of Binding,[10],102%
same,Max % Inhibition of Binding,[11],0%
same,Specific Binding [MFI],[12],143 MFI
same,Specific Binding [MFI],[13],814 MFI
same,Specific Binding [MFI],[14],121 MFI
same,Max % Inhibition of Binding,[15],99%
same,Specific Binding [MFI],[16],1010 MFI
same,Specific Binding [MFI],[17],158 MFI
same,Specific Binding [MFI],[18],917 MFI
M-IgG1 isotype control (antibody),Specific Binding [MFI],[1],144 MFI
same,Specific Binding [MFI],[2],72 MFI
same,Specific Binding [MFI],[3],55 MFI
same,Specific Binding [MFI],[4],82 MFI
same,Specific Binding [MFI],[5],213 MFI
same,Specific Binding [MFI],[6],83 MFI
anti-human TIM-3 mouse monoclonal antibody clone F38-2E2,Max % Inhibition of Binding,[7],6%
same,Kd,[19],168 nM
same,Max % Inhibition of Binding,[8],75%
same,Max % Inhibition of Binding,[9],2%
same,Max % Inhibition of Binding,[10],77%
same,Kd,monomeric human Tim3-ECD [20],13.6 nM
same,Kd,[21],7.5 nM
same,"IFNgamma release in MLR, % of rec hu IL-2 control, 1 µg/ml",[22],7%
same,"IFNgamma release in MLR, % of rec hu IL-2 control, 10 µg/ml",[22],26%
same,"IFNgamma release in MLR, % of rec hu IL-2 control, 40 µg/ml",[22],36%
same,EC50,Tim3-ECD-His-Biotin [23],0.0732 µg/mL
same,Inflexion point,Tim3-ECD-His-Biotin [23],88.3 ng/mL
same,Max % Inhibition of Binding,[11],-7%
same,Specific Binding [MFI],[12],124 MFI
same,EC50,[24],0.423 µg/mL
same,Inflexion point,[24],210000 ng/mL
same,Specific Binding [MFI],[13],460 MFI
same,Specific Binding [MFI],[14],136 MFI
same,Max % Inhibition of Binding,[15],94%
same,Specific Binding [MFI],[16],516 MFI
same,Specific Binding [MFI],[17],135 MFI
same,EC50,[25],0.15 µg/mL
same,Inflexion point,[25],224 ng/mL
same,Specific Binding [MFI],[18],493 MFI
B1,Kd,monomeric human Tim3-ECD [26],3.4 nM
same,Kd,[19],41.9 nM
same,Kd,monomeric human Tim3-ECD [20],3.4 nM
same,Kd,[21],1.11 nM
same,EC50,[27],0.0264 µg/mL
same,Inflexion point,[27],29.4 ng/mL
same,EC50,Tim3-ECD-His-Biotin [23],0.0151 µg/mL
same,Inflexion point,Tim3-ECD-His-Biotin [23],15.3 ng/mL
same,Kd,[28],1.1 nM
same,Specific Binding [MFI],[29],301 MFI
same,Specific Binding [MFI],[30],417 MFI
same,"IFNgamma release in MLR, % of rec hu IL-2 control, 1 µg/ml",[31],12%
same,"IFNgamma release in MLR, % of rec hu IL-2 control, 10 µg/ml",[31],30%
same,"IFNgamma release in MLR, % of rec hu IL-2 control, 40 µg/ml",[31],36%
same,EC50,[24],0.0146 µg/mL
same,Inflexion point,[24],14.6 ng/mL
same,EC50,[32],0.52 nM and 0.087 µg/mL
same,Specific Binding [MFI],[13],1940 MFI
same,EC50,Tim3-ECD-His-Biotin [33],0.56 nM and 0.094 µg/mL
same,Specific Binding [MFI],[34],480 MFI
same,Specific Binding [MFI],[16],2330 MFI
same,Specific Binding [MFI],[18],1820 MFI
B2,"Max. killing, Pfeiffer cells",[35],99.8%
same,"Max. killing, RPMI-8226 cells",[35],99.7%
B3,"Max. killing, Pfeiffer cells",[35],98.4%
